The target of one data set is T1, DRB4 (Arabidopsis thaliana, UniProt Q8H1D4 1-355).
T1 sequence: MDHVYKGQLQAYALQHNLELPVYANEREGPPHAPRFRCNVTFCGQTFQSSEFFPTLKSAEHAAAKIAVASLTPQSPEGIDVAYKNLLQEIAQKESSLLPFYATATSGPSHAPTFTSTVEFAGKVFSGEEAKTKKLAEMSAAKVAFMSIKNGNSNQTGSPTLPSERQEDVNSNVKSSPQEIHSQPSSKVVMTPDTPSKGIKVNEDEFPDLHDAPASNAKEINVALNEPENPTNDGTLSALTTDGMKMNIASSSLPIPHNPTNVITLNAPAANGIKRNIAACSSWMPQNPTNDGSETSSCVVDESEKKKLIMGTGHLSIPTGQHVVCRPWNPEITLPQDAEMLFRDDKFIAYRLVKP
As to the kind of experiment: ITC. On the technique in general: Isothermal titration calorimetry measures the heat released or taken up as one component is titrated into another.

In the next data set the target is T2, DRB4 H32A/K133A (Arabidopsis thaliana, UniProt Q8H1D4 1-355, H32A;K133A).
T2 sequence: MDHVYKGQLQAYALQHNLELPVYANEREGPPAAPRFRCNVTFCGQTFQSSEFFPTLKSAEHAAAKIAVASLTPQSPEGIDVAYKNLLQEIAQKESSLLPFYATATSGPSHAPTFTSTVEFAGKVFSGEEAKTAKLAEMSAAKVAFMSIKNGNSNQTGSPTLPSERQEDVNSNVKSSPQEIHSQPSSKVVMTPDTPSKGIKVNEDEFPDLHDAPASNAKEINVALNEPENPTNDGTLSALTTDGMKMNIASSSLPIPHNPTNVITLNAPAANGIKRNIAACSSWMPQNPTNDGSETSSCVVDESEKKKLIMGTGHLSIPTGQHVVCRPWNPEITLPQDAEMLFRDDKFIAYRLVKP
Briefly: EMSA. A general note: Mobility shift assays separate free from complexed probe on a gel.

The next data set deals with T3, DRB4D2D1 (Arabidopsis thaliana, UniProt Q8H1D4 1-3+82-150+73-81+4-72, internal_change).
T3 sequence: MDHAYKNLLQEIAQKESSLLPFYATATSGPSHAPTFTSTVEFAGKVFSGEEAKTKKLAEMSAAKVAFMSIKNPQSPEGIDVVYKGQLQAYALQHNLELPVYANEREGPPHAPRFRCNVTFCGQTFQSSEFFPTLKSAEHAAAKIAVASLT
As to the kind of experiment: ITC.

A further data set has as its target T4, DRB4D1D2 (Arabidopsis thaliana, UniProt Q8H1D4 1-153).
T4 sequence: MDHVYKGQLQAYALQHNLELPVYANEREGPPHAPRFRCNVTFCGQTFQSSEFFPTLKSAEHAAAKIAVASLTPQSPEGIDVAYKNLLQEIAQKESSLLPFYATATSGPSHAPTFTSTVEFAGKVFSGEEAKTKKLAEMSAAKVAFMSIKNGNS
As to the kind of experiment: ITC.

Another data set concerns the target T5, DRB4D1D2 H32A/K133A (Arabidopsis thaliana, UniProt Q8H1D4 1-153, H32A;K133A).
T5 sequence: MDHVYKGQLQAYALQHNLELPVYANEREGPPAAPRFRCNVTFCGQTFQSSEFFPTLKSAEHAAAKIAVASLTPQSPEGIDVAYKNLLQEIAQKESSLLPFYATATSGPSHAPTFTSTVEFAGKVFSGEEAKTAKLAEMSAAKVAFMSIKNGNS
As to the kind of experiment: EMSA.

The target of a further data set is T6, DRB4C (Arabidopsis thaliana, UniProt Q8H1D4 154-355).
T6 sequence: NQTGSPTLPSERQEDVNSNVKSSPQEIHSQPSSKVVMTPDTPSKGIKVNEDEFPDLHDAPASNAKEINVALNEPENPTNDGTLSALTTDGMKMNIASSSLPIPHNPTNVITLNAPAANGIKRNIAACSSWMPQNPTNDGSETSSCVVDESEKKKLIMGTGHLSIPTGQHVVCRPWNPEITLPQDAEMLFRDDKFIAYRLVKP
As to the kind of experiment: EMSA.

B1: 80 bp dsRNA (dsRNA)
RNA 1: GGGUGCUGUUUCUCGUGUUCGUGUUCGUUUCUCUUCUCUUGUCCUUGUUCUGUUCUCCUUUGUUCGUUCCUGUUCCCCUU
RNA 2: AAGGGGAACAGGAACGAACAAAGGAGAACAGAACAAGGACAAGAGAAGAGAAACGAACACGAACACGAGAAACAGCACCC
As to B1, the Kd (in general, the free concentration of one partner at which half of the binding sites on the other are occupied at equilibrium, for simple one-to-one binding) was determined as 120 ± 40 nM in the data set with DRB4, 4000 ± 400 nM with DRB4D2D1 and 400 ± 30 nM with DRB4D1D2. Besides, the binding result with DRB4 H32A/K133A, with DRB4D1D2 H32A/K133A and with DRB4C was “no binding” in each case.

The record behind these values is publication PMC5737894.
